Measured values as given in IntAct's records for PubMed 25910212.

B1: SWI/SNF-related matrix-associated actin-dependent regulator of chromatin subfamily A member 2 (Homo sapiens), P51531-1 (parent)
chain: MSTPTDPGAMPHPGPSPGPGPSPGPILGPSPGPGPSPGSVHSMMGPSPGPPSVSHPMPTMGSTDFPQEGMHQMHKPIDGIHDKGIVEDIHCGSMKGTGMRPPHPGMGPPQSPMDQHSQGYMSPHPSPLGAPEHVSSPMSGGGPTPPQMPPSQPGALIPGDPQAMSQPNRGPSPFSPVQLHQLRAQILAYKMLARGQPLPETLQLAVQGKRTLPGLQQQQQQQQQQQQQQQQQQQQQQQPQQQPPQPQTQQQQQPALVNYNRPSGPGPELSGPSTPQKLPVPAPGGRPSPAPPAAAQPPAAAVPGPSVPQPAPGQPSPVLQLQQKQSRISPIQKPQGLDPVEILQEREYRLQARIAHRIQELENLPGSLPPDLRTKATVELKALRLLNFQRQLRQEVVACMRRDTTLETALNSKAYKRSKRQTLREARMTEKLEKQQKIEQERKRRQKHQEYLNSILQHAKDFKEYHRSVAGKIQKLSKAVATWHANTEREQKKETERIEKERMRRLMAEDEEGYRKLIDQKKDRRLAYLLQQTDEYVANLTNLVWEHKQAQAAKEKKKRRRRKKKAEENAEGGESALGPDGEPIDESSQMSDLPVKVTHTETGKVLFGPEAPKASQLDAWLEMNPGYEVAPRSDSEESDSDYEEEDEEEESSRQETEEKILLDPNSEEVSEKDAKQIIETAKQDVDDEYSMQYSARGSQSYYTVAHAISERVEKQSALLINGTLKHYQLQGLEWMVSLYNNNLNGILADEMGLGKTIQTIALITYLMEHKRLNGPYLIIVPLSTLSNWTYEFDKWAPSVVKISYKGTPAMRRSLVPQLRSGKFNVLLTTYEYIIKDKHILAKIRWKYMIVDEGHRMKNHHCKLTQVLNTHYVAPRRILLTGTPLQNKLPELWALLNFLLPTIFKSCSTFEQWFNAPFAMTGERVDLNEEETILIIRRLHKVLRPFLLRRLKKEVESQLPEKVEYVIKCDMSALQKILYRHMQAKGILLTDGSEKDKKGKGGAKTLMNTIMQLRKICNHPYMFQHIEESFAEHLGYSNGVINGAELYRASGKFELLDRILPKLRATNHRVLLFCQMTSLMTIMEDYFAFRNFLYLRLDGTTKSEDRAALLKKFNEPGSQYFIFLLSTRAGGLGLNLQAADTVVIFDSDWNPHQDLQAQDRAHRIGQQNEVRVLRLCTVNSVEEKILAAAKYKLNVDQKVIQAGMFDQKSSSHERRAFLQAILEHEEENEEEDEVPDDETLNQMIARREEEFDLFMRMDMDRRREDARNPKRKPRLMEEDELPSWIIKDDAEVERLTCEEEEEKIFGRGSRQRRDVDYSDALTEKQWLRAIEDGNLEEMEEEVRLKKRKRRRNVDKDPAKEDVEKAKKRRGRPPAEKLSPNPPKLTKQMNAIIDTVINYKDRCNVEKVPSNSQLEIEGNSSGRQLSEVFIQLPSRKELPEYYELIRKPVDFKKIKERIRNHKYRSLGDLEKDVMLLCHNAQTFNLEGSQIYEDSIVLQSVFKSARQKIAKEEESEDESNEEEEEEDEEESESEAKSVKVKIKLNKKDDKGRDKGKGKKRPNRGKAKPVVSDFDSDEEQDEREQSEGSGTDDE
B2: U4/U6 small nuclear ribonucleoprotein Prp31 (Homo sapiens), Q8WWY3 (parent)
chain: MSLADELLADLEEAAEEEEGGSYGEEEEEPAIEDVQEETQLDLSGDSVKTIAKLWDSKMFAEIMMKIEEYISKQAKASEVMGPVEAAPEYRVIVDANNLTVEIENELNIIHKFIRDKYSKRFPELESLVPNALDYIRTVKELGNSLDKCKNNENLQQILTNATIMVVSVTASTTQGQQLSEEELERLEEACDMALELNASKHRIYEYVESRMSFIAPNLSIIIGASTAAKIMGVAGGLTNLSKMPACNIMLLGAQRKTLSGFSSTSVLPHTGYIYHSDIVQSLPPDLRRKAARLVAAKCTLAARVDSFHESTEGKVGYELKDEIERKFDKWQEPPPVKQVKPLPAPLDGQRKKRGGRRYRKMKERLGLTEIRKQANRMSFGEIEEDAYQEDLGFSLGHLGKSGSGRVRQTQVNEATKARISKTLQRTLQKQSVVYGGKSTIRDRSSGTASSVAFTPLQGLEIVNPQAAEKKVAEANQKYFSSMAEFLKVKGEKSGLMST
partner: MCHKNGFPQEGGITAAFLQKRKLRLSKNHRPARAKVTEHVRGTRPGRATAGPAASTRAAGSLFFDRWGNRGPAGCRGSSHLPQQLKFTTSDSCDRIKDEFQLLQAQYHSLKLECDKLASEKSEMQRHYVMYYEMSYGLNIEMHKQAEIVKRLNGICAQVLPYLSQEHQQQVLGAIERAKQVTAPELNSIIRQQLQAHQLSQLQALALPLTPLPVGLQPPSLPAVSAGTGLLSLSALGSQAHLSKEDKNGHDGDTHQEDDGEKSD
B3: Homeobox protein SIX1 (Homo sapiens), Q15475 (parent)
chain: MSMLPSFGFTQEQVACVCEVLQQGGNLERLGRFLWSLPACDHLHKNESVLKAKAVVAFHRGNFRELYKILESHQFSPHNHPKLQQLWLKAHYVEAEKLRGRPLGAVGKYRVRRKFPLPRTIWDGEETSYCFKEKSRGVLREWYAHNPYPSPREKRELAEATGLTTTQVSNWFKNRRQRDRAAEAKERENTENNNSSSNKQNQLSPLEGGKPLMSSSEEEFSPPQSPDQNSVLLLQGNMGHARSSNYSLPGLTASQPSHGLQTHQHQLQDSLLGPLTSSLVDLGS
partner: B2 partner
B4: Chorion-specific transcription factor GCMb (Homo sapiens), O75603 (parent)
chain: MPAAAVQEAVGVCSYGMQLSWDINDPQMPQELALFDQFREWPDGYVRFIYSSDEKKAQRHLSGWAMRNTNNHNGHILKKSCLGVVVCTQACTLPDGSRLQLRPAICDKARLKQQKKACPNCHSALELIPCRGHSGYPVTNFWRLDGNAIFFQAKGVHDHPRPESKSETEARRSAIKRQMASFYQPQKKRIRESEAEENQDSSGHFSNIPPLENPEDFDIVTETSFPIPGQPCPSFPKSDVYKATCDLATFQGDKMPPFQKYSSPRIYLPRPPCSYELANPGYTNSSPYPTLYKDSTSIPNDTDWVHLNTLQCNVNSYSSYERSFDFTNKQHGWKPALGKPSLVERTNHGQFQAMATRPYYNPELPCRYLTTPPPGAPALQTVITTTTKVSYQAYQPPAMKYSDSVREVKSLSSCNYAPEDTGMSVYPEPWGPPVTVTRAASPSGPPPMKIAGDCRAIRPTVAIPHEPVSSRTDEAETWDVCLSGLGSAVSYSDRVGPFFTYNNEDF
partner: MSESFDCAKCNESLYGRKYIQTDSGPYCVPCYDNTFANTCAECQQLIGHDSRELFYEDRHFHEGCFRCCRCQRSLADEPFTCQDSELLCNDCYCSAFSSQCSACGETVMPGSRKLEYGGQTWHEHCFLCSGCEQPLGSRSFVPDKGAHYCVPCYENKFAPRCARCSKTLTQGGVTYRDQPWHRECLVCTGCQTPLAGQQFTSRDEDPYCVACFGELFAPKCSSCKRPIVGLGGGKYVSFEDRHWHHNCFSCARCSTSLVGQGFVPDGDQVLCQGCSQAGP
B5: Carbonyl reductase [NADPH] 3 (Homo sapiens), O75828 (parent)
chain: MSSCSRVALVTGANRGIGLAIARELCRQFSGDVVLTARDVARGQAAVQQLQAEGLSPRFHQLDIDDLQSIRALRDFLRKEYGGLNVLVNNAAVAFKSDDPMPFDIKAEMTLKTNFFATRNMCNELLPIMKPHGRVVNISSLQCLRAFENCSEDLQERFHSETLTEGDLVDLMKKFVEDTKNEVHEREGWPNSPYGVSKLGVTVLSRILARRLDEKRKADRILVNACCPGPVKTDMDGKDSIRTVEEGAETPVYLALLPPDATEPQGQLVHDKVVQNW

Variants of: B1
Conditions: with sdcb1_human SDCBP
Target sequence in this assay (O00560 whole entry): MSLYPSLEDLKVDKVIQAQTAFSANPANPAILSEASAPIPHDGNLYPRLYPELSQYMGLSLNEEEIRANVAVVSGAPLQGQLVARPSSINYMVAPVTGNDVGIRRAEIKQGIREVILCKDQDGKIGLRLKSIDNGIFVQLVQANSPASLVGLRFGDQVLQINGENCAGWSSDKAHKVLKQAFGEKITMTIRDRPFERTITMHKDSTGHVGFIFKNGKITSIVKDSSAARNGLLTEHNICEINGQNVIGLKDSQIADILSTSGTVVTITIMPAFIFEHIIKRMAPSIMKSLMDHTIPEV

Row | Variant | effect of a mutation on the interaction
1 | D1546E | with no effect

Variants of: B1
Conditions: with sdcb1_human SDCBP
Remark: another data set of the same source
Target sequence in this assay (O00560 whole entry): as above

Row | Variant | effect of a mutation on the interaction
2 | D1546E | with no effect

Variants of: B2
Conditions: with TLE5, Q08117-2

Row | Variant | effect of a mutation on the interaction
3 | MSLADELLADLEEAAEEEEGGSYGEEEEEPAIEDVQEETQLDLSGDSVKTIAKLWDSKMFAEIMMKIEEYISKQAKASEVMGPVEAAPEYRVIVDANNLTVEIENEVNIIHKFIRDKYSKRFPELESLVPNALDYIRTVKELGNSLDKCKNNENLQQILTNATIMVVSVTASTTQGQQLSEEELERLEEACDMALELNASKHRIYEYVESRMSFIAPNLSIIIGASTAAKIMGVAGGLTNLSKMPACNIMLLGAQRKTLSGFSSTSVLPHTGYIYHSDIVQSLPPDLRRKAARLVAAKCTLAARVDSFHESTEGKVGYELKDEIERKFDKWQEPPPVKQVKPLPAPLDGQRKKRGGRRYRKMKERLGLTEIRKQANRMSFGEIEEDAYQEDLGFSLGHLGKSGSGRVRQTQVNEATKARISKTLQRTLQKQSVVYGGKSTIRDRSSGTASSVAFTPLQGLEIVNPQAAEKKVAEANQKYFSSMAEFLKVKGEKSGLMST [L107V] | with no effect

Variants of: B3
Conditions: with TLE5, Q08117-2

Row | Variant | effect of a mutation on the interaction
4 | MSMLPSFGFTQEQVACVCEVLQQGGNLERLGRFLWSLPACDHLHKNESVLKAKAVVAFHRGNFRELYKILESHQFSPHNHPKLQQLWLKAHYVEAEKLRGRPLGAVGKYRVRRKFPLPRTIWDGEETSYCFKEKSRGVLREWYAHNPYPSPREKRELAEATGLTTTQVSNWFKNRRQRDRAAEAKERENTENNNSSSNKQNQLSPLEGGKPLMSSSEEEFSPPQSPYQNSVLLLQGNMGHARSSNYSLPGLTASQPSHGLQTHQHQLQDSLLGPLTSSLVDLGS [D227Y] | with no effect
5 | MSMLPSFGFTQEQVACVCEVLQQGGNLERLGRFLWSLPACDHLHKNESVLKAKAVVAFHRGNFRELYKILESHQFSPHNHPKLQQLWLKAHYVEAEKLRGRPLGAVGKYWVRRKFPLPRTIWDGEETSYCFKEKSRGVLREWYAHNPYPSPREKRELAEATGLTTTQVSNWFKNRRQRDRAAEAKERENTENNNSSSNKQNQLSPLEGGKPLMSSSEEEFSPPQSPDQNSVLLLQGNMGHARSSNYSLPGLTASQPSHGLQTHQHQLQDSLLGPLTSSLVDLGS [R110W] | with no effect

Variants of: B4
Conditions: with fhl3_human FHL3, Q13643

Row | Variant | effect of a mutation on the interaction
6 | MPAAAVQEAVGVCSYGMQLSWDINDPQMPQELALFDQFREWPDGYVRFIYSSDEKKAQRHLSSWAMRNTNNHNGHILKKSCLGVVVCTQACTLPDGSRLQLRPAICDKARLKQQKKACPNCHSALELIPCRGHSGYPVTNFWRLDGNAIFFQAKGVHDHPRPESKSETEARRSAIKRQMASFYQPQKKRIRESEAEENQDSSGHFSNIPPLENPEDFDIVTETSFPIPGQPCPSFPKSDVYKATCDLATFQGDKMPPFQKYSSPRIYLPRPPCSYELANPGYTNSSPYPTLYKDSTSIPNDTDWVHLNTLQCNVNSYSSYERSFDFTNKQHGWKPALGKPSLVERTNHGQFQAMATRPYYNPELPCRYLTTPPPGAPALQTVITTTTKVSYQAYQPPAMKYSDSVREVKSLSSCNYAPEDTGMSVYPEPWGPPVTVTRAASPSGPPPMKIAGDCRAIRPTVAIPHEPVSSRTDEAETWDVCLSGLGSAVSYSDRVGPFFTYNNEDF [G63S] | with no effect
7 | MPAAAVQEAVGVCSYGMQLSWDINDPQMPQELALFDQFREWPDGYVRFIYSSDEKKAQRHLSGWAMRNTNNHNGHILKKSCLGVVVCTQACTLPDGSRLQLRPAICDKARLKQQKKACPNCHSALELIPCRGHSGYPVTNFWRLDGNAIFFQAKGVHDHPRPESKSETEARRSAIKRQMASFYQPQKKRIRESEAEENQDSSSHFSNIPPLENPEDFDIVTETSFPIPGQPCPSFPKSDVYKATCDLATFQGDKMPPFQKYSSPRIYLPRPPCSYELANPGYTNSSPYPTLYKDSTSIPNDTDWVHLNTLQCNVNSYSSYERSFDFTNKQHGWKPALGKPSLVERTNHGQFQAMATRPYYNPELPCRYLTTPPPGAPALQTVITTTTKVSYQAYQPPAMKYSDSVREVKSLSSCNYAPEDTGMSVYPEPWGPPVTVTRAASPSGPPPMKIAGDCRAIRPTVAIPHEPVSSRTDEAETWDVCLSGLGSAVSYSDRVGPFFTYNNEDF [G203S] | with no effect
8 | MPAAAVQEAVGVCSYGMQLSWDINDPQMPQELALFDQFREWPDGYVLFIYSSDEKKAQRHLSGWAMRNTNNHNGHILKKSCLGVVVCTQACTLPDGSRLQLRPAICDKARLKQQKKACPNCHSALELIPCRGHSGYPVTNFWRLDGNAIFFQAKGVHDHPRPESKSETEARRSAIKRQMASFYQPQKKRIRESEAEENQDSSGHFSNIPPLENPEDFDIVTETSFPIPGQPCPSFPKSDVYKATCDLATFQGDKMPPFQKYSSPRIYLPRPPCSYELANPGYTNSSPYPTLYKDSTSIPNDTDWVHLNTLQCNVNSYSSYERSFDFTNKQHGWKPALGKPSLVERTNHGQFQAMATRPYYNPELPCRYLTTPPPGAPALQTVITTTTKVSYQAYQPPAMKYSDSVREVKSLSSCNYAPEDTGMSVYPEPWGPPVTVTRAASPSGPPPMKIAGDCRAIRPTVAIPHEPVSSRTDEAETWDVCLSGLGSAVSYSDRVGPFFTYNNEDF [R47L] | disrupting interaction strength

Variants of: B5
Conditions: with sdcb1_human SDCBP
Target sequence in this assay (O00560 whole entry): as the sequence (O00560 whole entry) above

Row | Variant | effect of a mutation on the interaction
9 | MSSCSRVALVTGANRGIGLAIARELCRQFSGDVVLTARDVARGQAAVQQLQAEGLSPRFHQLDIDDLQSIRALRDFLRKEYGGLNVLVNNAAVAFKSDDPMPFDIKAEMTLKTNFFATRNMCNELLPIMKPHGRVVNISSLQCLRAFENCSEDLQERFHSETLTEGDLVDLMKKFVEDTKNEVHEREGWPNSPYGVSKLGVTVLSRILARRLDEKRKADRILVNACCPGPVKTDMDGKDSIRTMEEGAETPVYLALLPPDATEPQGQLVHDKVVQNW [V244M] | disrupting interaction strength
